Assay results as given in the RNAGym collection of RNA variant scans (doi:10.7554/elife.80360).

B1: HDV Ribozyme (parent)
chain: GGCCGGCAUGGUCCCAGCCUCCUCGCUGGCGCCGGCUGGGCAACAUUCCGAGGGGACCGUCCCCUCGGUAAUGGCGAAUGGGACCCA

Variants of: B1
Test: self-cleavage, relative activity (ratio to wild type); higher = more cleavage; co-transcriptional

Variant	self-cleavage
G50C C64A	0.389
C57U C64A	0.901
C3G C7U	0.226
C30A A83U	0.0923
C36A G59U	0.138
A78C C85G	0.0852
U46A C62G	0.289
G50C G74U	0.292
C22U C75G	0.208
U65G G76A	0.95
C36U A71U	0.471
G11A G54A	0.371
G34U G55U	0.105
G6C C86A	0.482
A8C C21U	0.0594
A8U A42G	0.111
U37A A83G	0.115
G6C G55U	0.177
G5U G17U	0.18
C41A U47C	0.932
A43G G59A	0.811
C3G U12C	0
G53C U79C	0.47
G50C G55C	1.14

Variant	self-cleavage
U27A G38C	0.0665
G17U U79G	0.406
C63U U69C	0.964
G10A C26A	0.906
G38A U69C	0.31
G54C	0.98
G39A A56U	0.676
A42G G52C	0.733
G74U C86A	0.389
C32A C48G	0.0462
A8U C63U	0.862
U37G C61A	0.0875
A42C G52U	0.282
U60C C86G	0.982
G1U C44U	0.252
C57G C66A	0.923
C14A G31A	0.121
U9C G29C	0.138
G52A C58A	1.14
G5C G40U	0.104
C4G C19A	0
G59U G68U	1
C24A G28A	0.208
G28A A70U	0.203

Variant	self-cleavage
A51C U72G	0.529
C41G G80U	0.124
G52C A70U	0.782
A8G U60G	1.11
G17A C63G	0.633
C4A C36U	0
C4U G6C	0
A45U G76A	0.578
C22U G25U	0.0287
C15U U79A	1.11
G10C A56U	0.957
C36U G59C	0.923
U23C G80A	0.394
U23C G80C	0.188
G34A C48A	0.259
U20C G73U	0.0875
G29C A77G	0.135
C18U U65G	0.554
G5A G68A	0.164
G35U G54A	0.499
U9C C86A	1.03
A45C C86U	0.779
C13G G76A	0
C33U G35A	0.205

Variant	self-cleavage
U9C G52A	1.04
A77C G82A	0.358
G17A C24G	0.0791
C15U A16G	1.05
C22U C44A	0.0898
G31U C41A	0.136
A45G A56G	0.997
G54U C57U	0.993
C13A G81C	0
U46C C57G	1.04
U12C U20A	0.0723
U12G C30G	0
U65C A87C	1.09
C41G A83G	0.759
A8G A16C	0.639
A8G C64G	0.7
U60G G68U	0.762
C62G U65C	0.427
A42C U47G	0.0594
C14A C75U	0
G35U U47C	0.189
A45G G67U	0.933
A42U C44U	0.674
C24U G68U	0.891

Variant	self-cleavage
U20A A77U	0
C44G G82U	0.232
U27A G28U	0.158
C49U G55C	0.906
G6U G28A	0
G2U G68C	0.0339
G10A G31A	0.203
G39U C48G	0.862
C7A C48G	0.462
C24A A87U	0.749
G17A U37C	1.1
C4A C13A	0.0282
U47C G59C	1.09
C14A G82U	0.665
G55C G82C	0.277
G10C A42G	0.151
U27A C64A	0.703
G5U G52A	0.283
A8U A70U	0.772
C18G C41G	0.266
C7A G80A	0.0739
G34A A45U	0.16
U72C G76U	1.01
C41G C86U	0.657

Variant	self-cleavage
U27A A56G	1.08
G28U G81A	0.158
C14U G39U	0.895
C21U U23A	0.173
G2A C64U	0.18
G28U C84G	0.13
C13G G39A	0.0332
C62G A77G	0.745
C32A A45C	0.0875
U9A U79A	0.923
G40U G80A	0.197
U12C A77U	0.289
C15A C61U	0.752
C75G C86U	0.156
A56C C84G	0.755
G50C C57G	1.12
C4G G73C	0.0361
U69G G82U	0.208
A8C G28C	0
C4G C61A	0.35
G50U G55C	1.03
G6A G38C	0
C57A C61A	1.05
C3A C36G	0.0608

Variant	self-cleavage
C3U U79A	0.591
C14G A87G	0.683
G50C C58G	0.796
G50C C58U	1.04
A71U A87U	0.897
A45C C66G	0.587
U60C G80U	0.157
C30U G39A	0.273
C4G C57U	0.529
C18U G80U	0.0989
G31C A78G	0.302
G10U C86A	0.712
C64A C85G	0.594
G28C U79G	0.246
G10U G54C	0.831
C4U C84G	0.19
C14G C61A	0.88
A8G G40A	1.08
C18A C49A	0.111
C49G C62G	0.133
A8U C64U	1.11
C22G G31C	0.0852
G25C C44A	0.185
